Assay results taken from patent US20120270914A1 (Stanford University, published 2012).

Molecular target: NFL-c-Myc (firefly, UniProt P08659 1-398 = luciferase, phosphorylated in the cells at S62 and T58 (c-Myc numbering))
Assay: cell-based or functional assay

Sequence of NFL-c-Myc (P08659 other isoform, or with tags, fused parts or gaps limits assumed): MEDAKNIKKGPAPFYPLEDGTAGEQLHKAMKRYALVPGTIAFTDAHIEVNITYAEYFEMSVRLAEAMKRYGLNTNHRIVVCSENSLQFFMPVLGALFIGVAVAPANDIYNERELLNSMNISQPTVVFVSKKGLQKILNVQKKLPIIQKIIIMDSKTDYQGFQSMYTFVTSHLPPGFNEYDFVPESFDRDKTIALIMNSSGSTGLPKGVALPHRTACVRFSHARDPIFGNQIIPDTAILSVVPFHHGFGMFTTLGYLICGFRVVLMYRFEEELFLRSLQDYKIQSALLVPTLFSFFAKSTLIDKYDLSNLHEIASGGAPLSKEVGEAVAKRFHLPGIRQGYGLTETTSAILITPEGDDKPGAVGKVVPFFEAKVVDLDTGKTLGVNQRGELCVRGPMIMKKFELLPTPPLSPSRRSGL

| Binder | complemented FL activity (BLI, SKBR3 cells), compared with the pairing of GSK Full-CFL and NFL-SH2-SH2 | complemented FL activity of SKBR3 xenografts in nude mice, normalized to hRL activity, compared with pcDNA3.1(+) vector |
| --- | --- | --- |
| GSK Full-CFL (other, not shown: large carriers) MSGRPRTTSFAESCKPVQQPSAFGSMKVSRDKDGSKVTTVVATPGQGPDRPQEVSYTDTKVIGNGSFGVVYQAKLCDSGELVAIKKVLQDKRFKNRELQIMRKLDHCNIVRLRYFFYSSGEKKDEVYLNLVLDYVPETVYRVARHYSRAKQTLPVIYVKLYMYQLFRSLAYIHSFGICHRDIKPQNLLLDPDTAVLKLCDFGSAKQLVRGEPNVSYICSRYYRAPELIFGATDYTSSIDVWSAGCVLAELLLGQPIFPGDSGVDQLVEIIKVLGTPTREQIREMNPNYTEFKFPQIKAHPWTKDSSGTGHFTSGVRVFRPRTPPEAIALCSRLLEYTPTARLTPLEACAHSFFDELRDPNVKLPNGRDTPALFNFTTQELSSNPPLATILIPPHARIQAAASTPTNATAASDANTGDRGQTNNAASASASNST | > 10 fold |  |
| GSK 35-433-CFL (other, not shown: large carriers) SKVTTVVATPGQGPDRPQEVSYTDTKVIGNGSFGVVYQAKLCDSGELVAIKKVLQDKRFKNRELQIMRKLDHCNIVRLRYFFYSSGEKKDEVYLNLVLDYVPETVYRVARHYSRAKQTLPVIYVKLYMYQLFRSLAYIHSFGICHRDIKPQNLLLDPDTAVLKLCDFGSAKQLVRGEPNVSYICSRYYRAPELIFGATDYTSSIDVWSAGCVLAELLLGQPIFPGDSGVDQLVEIIKVLGTPTREQIREMNPNYTEFKFPQIKAHPWTKDSSGTGHFTSGVRVFRPRTPPEAIALCSRLLEYTPTARLTPLEACAHSFFDELRDPNVKLPNGRDTPALFNFTTQELSSNPPLATILIPPHARIQAAASTPTNATAASDANTGDRGQTNNAASASASNST |  | 10.6 fold |
